The record followed here is US20250258173A1 (FUJIREBIO, published 2025).

Read-outs that look alike come from different tables or passages of the source.

For assay [1], the target named is T1, recombinant N protein of SARS-CoV-2 (whole length, 419 amino acids) (SARS-CoV-2, UniProt P0DTC9 1-419).
T1 construct: also called SARS-CoV-2 N protein; SARS-CoV-2 nucleocapsid protein

In assay [2] the target is T1, recombinant N protein of SARS-CoV-2 …. This is another data set of the same source.
Assay [3] has the same target. The source holds these as a separate data set.
For assay [4] the target is unchanged. This is another data set of the same source.

B1: anti-N protein antibody C12 (antibody, V domains shown)
VH: EVQLQESGGGLVRPGGSLKLSCAASGFTFSDYYMYWVRQTPEKRLEWVATISDGGRYSYYPDSVKGRFTVSRDNAKNNLYLQMSSLKSEDTAMYYCVRDRYDGWGSDFDVWGAGTTVTVS
VL: DVQITQSPSSMYASLGERVTITCKASQDIKSYLSWYQQKPWKSPKTLIYYATSLADGVPSRFSGSGSGQDYSLTISSLESDDTATYYCLQHGESPWTFGGGTKLEIKR
For B1, the “luminescence amount ratio (10 ng/mL/0 ng/mL)” value worked out at 52.8 in assay [1], 22.8 in assay [2], 847 in assay [3] and 1.3 in assay [4].
